Measurements taken from patent US20180127503A1 (EUREKA THERAPEUTICS, published 2018).

How the values were obtained:
[1] = biological target: T1, human ROR2 expressed on the cell surface (human, UniProt Q01974 34-943); assay: flow cytometry, H69 cells (SCLC); parameters: unit not given here
T1 construct: Endogenous ROR2 of human tumour cell lines; also called cell surface ROR2; ROR2 on tumour cell lines
Protocol: (§1) Human tumour cell lines were authenticated using short tandem repeat (STR) analysis. They were cultured in RPMI1640 (Cellgro) supplemented with 10% fetal bovine serum (FBS, Life Technologies) at 37° C. in a 5% CO₂ humidified incubator. They were harvested, washed in PBS and reacted with ROR2-IgG at 1 ug/10⁶ tumour cells on ice for an hour. #901-IgG was used as a negative control at the same dose. After washing, a secondary PE-conjugated goat anti-human IgG, Fcγ fragment specific (1:100, Jackson ImmunoResearch) was added for another 30 min incubation. Staining was analyzed on a FACSCalibur (BD Biosciences). ROR2 (full length) antibody binding towards multiple cancer cell lines were compared with Rituxan and Herceptin antibodies. The cancer cell lines were derived from breast cancer, colorectal cancer, mesothelioma, hepatocellular carcinoma, ovarian cancer, osteosarcoma, neuroblastoma, etc. ROR2 #90 antibody could recognize most of the tumour cells tested, and in some cases, the binding intensity was higher than Herceptin (see Tables 8 to 10).

[2] = biological target: T1, human ROR2 expressed on the cell surface; assay: flow cytometry, HEP G2 cells (HCC); parameters: unit not given here
Protocol: as §1

[3] = biological target: T1, human ROR2 expressed on the cell surface; assay: flow cytometry, SKHEP-1 cells (HCC); parameters: unit not given here
Protocol: as §1

[4] = biological target: T1, human ROR2 expressed on the cell surface; assay: flow cytometry, COLO 205 cells (CRC); parameters: unit not given here
Protocol: as §1

[5] = biological target: T1, human ROR2 expressed on the cell surface; assay: flow cytometry, TC71 cells (EW/PNET); parameters: unit not given here
Protocol: as §1

[6] = biological target: T1, human ROR2 expressed on the cell surface; assay: flow cytometry, M14 cells (melanoma); parameters: reference not given here
Protocol: as §1

[7] = biological target: T1, human ROR2 expressed on the cell surface; assay: flow cytometry, OCM1 cells (melanoma); parameters: unit not given here
Protocol: as §1

[8] = biological target: T1, human ROR2 expressed on the cell surface; assay: flow cytometry, CHP100 cells (EW/PNET); parameters: unit not given here
Protocol: as §1

[9] = biological target: T1, human ROR2 expressed on the cell surface; assay: flow cytometry, JN DSRCT cells (DSRCT); parameters: unit not given here
Protocol: as §1

[10] = biological target: T1, human ROR2 expressed on the cell surface; assay: flow cytometry, HTB63 cells (melanoma); parameters: unit not given here
Protocol: as §1

[11] = biological target: T1, human ROR2 expressed on the cell surface; assay: flow cytometry, AU565 cells (breast CA); parameters: unit not given here
Protocol: as §1

[12] = biological target: T1, human ROR2 expressed on the cell surface; assay: flow cytometry, HTB27 cells (breast CA); parameters: unit not given here
Protocol: as §1

[13] = biological target: T1, human ROR2 expressed on the cell surface; assay: flow cytometry, HTB37-Caco2 cells (CRC); parameters: unit not given here
Protocol: as §1

[14] = biological target: T1, human ROR2 expressed on the cell surface; assay: flow cytometry, SKBR3 cells (breast CA); parameters: reference not given here
Protocol: as §1

[15] = biological target: T1, human ROR2 expressed on the cell surface; assay: flow cytometry, SKOV3 cells (ovarian CA); parameters: unit not given here
Protocol: as §1

[16] = biological target: T1, human ROR2 expressed on the cell surface; assay: flow cytometry, SKMEL28 cells (melanoma); parameters: reference not given here
Protocol: as §1

[17] = biological target: T1, human ROR2 expressed on the cell surface; assay: flow cytometry, NB5 cells (neuroblastoma); parameters: unit not given here
Protocol: as §1

[18] = biological target: T1, human ROR2 expressed on the cell surface; assay: flow cytometry, RG187 cells (osteosarcoma); parameters: unit not given here
Protocol: as §1

[19] = biological target: T1, human ROR2 expressed on the cell surface; assay: flow cytometry, LAN-1 cells (neuroblastoma); parameters: unit not given here
Protocol: as §1

[20] = biological target: T1, human ROR2 expressed on the cell surface; assay: flow cytometry, SKNMM cells (neuroblastoma); parameters: unit not given here
Protocol: as §1

[21] = biological target: T1, human ROR2 expressed on the cell surface; assay: flow cytometry, SKNSH cells (neuroblastoma); parameters: unit not given here
Protocol: as §1

[22] = biological target: T1, human ROR2 expressed on the cell surface; assay: flow cytometry, BE(1)N cells (neuroblastoma); parameters: unit not given here
Protocol: as §1

[23] = biological target: T1, human ROR2 expressed on the cell surface; assay: flow cytometry, BE(2)S cells (neuroblastoma); parameters: unit not given here
Protocol: as §1

[24] = biological target: T1, human ROR2 expressed on the cell surface; assay: flow cytometry, NCI-H2052 cells (mesothelioma); parameters: reference not given here
Protocol: as §1

[25] = biological target: T1, human ROR2 expressed on the cell surface; assay: flow cytometry, OUMS 27 cells (chondrosarcoma); parameters: unit not given here
Protocol: as §1

[26] = biological target: T1, human ROR2 expressed on the cell surface; assay: flow cytometry, HTB26 (MDA-MB-231) cells (breast CA); parameters: unit not given here
Protocol: as §1

[27] = biological target: T2, human ROR2 extracellular domain (ROR2 ECD recombinant protein) (human, UniProt Q01974 34-403); assay: kinetic binding analysis, full length IgG1 on human ROR2-ECD
T2 construct: also called human ROR2-ECD; hROR2-ECD
T2 sequence (Q01974 34-403): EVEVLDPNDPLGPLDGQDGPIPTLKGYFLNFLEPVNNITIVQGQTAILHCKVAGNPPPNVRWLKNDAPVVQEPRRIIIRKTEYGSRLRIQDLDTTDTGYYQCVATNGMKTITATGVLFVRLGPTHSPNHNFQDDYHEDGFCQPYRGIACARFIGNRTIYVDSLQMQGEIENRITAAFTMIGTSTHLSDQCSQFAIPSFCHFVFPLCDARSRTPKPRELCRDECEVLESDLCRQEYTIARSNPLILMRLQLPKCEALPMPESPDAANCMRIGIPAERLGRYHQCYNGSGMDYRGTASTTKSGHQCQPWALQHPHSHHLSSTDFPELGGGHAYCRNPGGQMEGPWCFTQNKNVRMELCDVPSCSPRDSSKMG

T1 sequence (Q01974 34-943 limits assumed): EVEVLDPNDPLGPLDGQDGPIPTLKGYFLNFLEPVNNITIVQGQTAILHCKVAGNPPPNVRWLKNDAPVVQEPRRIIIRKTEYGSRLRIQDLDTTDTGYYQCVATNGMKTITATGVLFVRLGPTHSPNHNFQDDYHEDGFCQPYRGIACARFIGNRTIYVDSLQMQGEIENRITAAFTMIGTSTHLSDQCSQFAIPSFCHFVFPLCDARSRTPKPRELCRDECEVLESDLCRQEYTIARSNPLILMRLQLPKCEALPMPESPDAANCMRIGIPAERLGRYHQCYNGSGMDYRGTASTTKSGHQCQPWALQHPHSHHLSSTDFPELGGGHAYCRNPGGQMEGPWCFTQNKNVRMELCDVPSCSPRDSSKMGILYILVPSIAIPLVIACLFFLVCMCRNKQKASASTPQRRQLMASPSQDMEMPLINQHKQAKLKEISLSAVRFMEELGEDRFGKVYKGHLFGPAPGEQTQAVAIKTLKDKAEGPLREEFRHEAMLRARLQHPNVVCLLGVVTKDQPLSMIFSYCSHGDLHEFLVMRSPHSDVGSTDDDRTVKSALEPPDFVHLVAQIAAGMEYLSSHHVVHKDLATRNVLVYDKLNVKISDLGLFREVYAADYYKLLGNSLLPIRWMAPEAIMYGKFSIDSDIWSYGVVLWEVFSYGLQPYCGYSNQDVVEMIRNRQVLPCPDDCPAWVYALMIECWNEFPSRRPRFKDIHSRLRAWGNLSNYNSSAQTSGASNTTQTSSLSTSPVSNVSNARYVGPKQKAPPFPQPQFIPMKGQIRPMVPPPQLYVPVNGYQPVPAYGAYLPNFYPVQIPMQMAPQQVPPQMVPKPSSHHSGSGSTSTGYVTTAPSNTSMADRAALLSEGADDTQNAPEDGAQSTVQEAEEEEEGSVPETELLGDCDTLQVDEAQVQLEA

binding intensity [1]: 15
binding intensity [2]: 49
binding intensity [3]: 74
binding intensity [4]: 44
binding intensity [5]: 68
binding intensity [6]: 17
binding intensity [7]: 18
binding intensity [8]: 57
binding intensity [9]: 84
binding intensity [10]: 27
binding intensity [11]: 211
binding intensity [12]: 125
binding intensity [13]: 91
binding intensity [14]: 98
binding intensity [15]: 246
binding intensity [16]: 26
binding intensity [17]: 47
binding intensity [18]: 79
binding intensity [19]: 48
binding intensity [20]: 117
binding intensity [21]: 105
binding intensity [22]: 302
binding intensity [23]: 40
binding intensity [24]: 101
binding intensity [25]: 78
binding intensity [26]: 19
Kd [27]: 0.163 nM
koff [27]: 0.000167 s⁻¹
kon [27]: 1.02e+06 M⁻¹ s⁻¹
B1: ROR2-90 full length human IgG1 antibody (antibody, V domains shown)
VH: EVQLVESGPGLVKPSQTLSLTCTVSGGSISSGGYYWSWIRQHPGKGLEWIGYIYYSGSTYYNPSLKSRVTISVDTSKNQFSLKLSSVTAADTAMYYCARGGLYWTYSQDVWGQGTLVTVSS
VL: QPVLTQPPSASGTPGQRVTISCSGSSSNIGSDYVSWYQQLPGTAPKLLIYRNDQRPSGVPDRFSGSKSGTSASLAISGLRSEDEADYYCVAWDDSLSGYVFGSGTKVTVLG
notes: also called clone #90; antibody #90
